To fix the notation:
B1: Twister Ribozyme (parent)
chain: AACACUGCCAAUGCCGGUCCCAAGCCCGGAUAAAAGUGGAGGGGGCGG

These results are taken from the RNAGym collection of RNA variant scans (doi:10.7554/elife.80360).

In the series the parent is B1. The series can be described thus: self-cleavage, relative activity (ratio to wild type); higher = more cleavage; co-transcriptional.
As for AACACUGCCAAUGCCGGUCCCAGGCGCGGAUAAAAGUGGAGGGGGCGG [A23G C26G], the self-cleavage came out at 0.107.

For AACACUGCCAAUGCCGGUCCCAAUCCCGGAUAGAAGUGGAGGGGGCGG [G24U A33G], the self-cleavage came out at 0.104.

Consider AACACUGCCAAUGCCGGUCCCAAGCCCGGAUAAAAGUGGAGGUGACGG [G43U G45A], for which the self-cleavage came to 0.614.

Consider AACACUGCCAAUGCCGGUCCAACGCCCGGAUAAAAGUGGAGGGGGCGG [C21A A23C], for which the self-cleavage worked out at 0.109.

On to AACACUGCCAAUGCCGGGACCAAGCCCGGAUAAAAGUGGAGGGGGCGG [U18G C19A], for which the self-cleavage amounted to 0.0794.

As for AACACUGCCAAUGCCGGUCCCAAGCCCGGAUAUAGGUGGAGGGGGCGG [A33U A35G], the self-cleavage stood at 0.8.

For the variant AACACUGCCAAUGCCGGUCCCAAGCCCGUAUAAAAGUGGAGGGGACGG [G29U G45A], the self-cleavage worked out at 0.812.

As to AACACUGCCAAUGCCGGUCCCAAGCCCGGAUGAAAUUGGAGGGGGCGG [A32G G36U], the self-cleavage was 0.244.

For the variant AACACUGCCAAUGCCCGUACCAAGCCCGGAUAAAAGUGGAGGGGGCGG [G16C C19A], the self-cleavage stood at 0.165.

On to AACACUGCCAAUGUCGGUCCCAAGCCGGGAUAAAAGUGGAGGGGGCGG [C14U C27G], for which the self-cleavage was 0.108.

AACACUGCCAAUGCCGGUCCGAAGCCCGGAUAACAGUGGAGGGGGCGG [C21G A34C]: the self-cleavage is 0.0532.

As for AACACUGCCAAUCCCGGUCCCAAGCCCGGAUAAAAGAGGAGGGGGCGG [G13C U37A], the self-cleavage worked out at 0.075.

In the case of AACACUGCCUAUGCCGGUCCCAAGCCCGGAUAAAAUUGGAGGGGGCGG [A10U G36U], the self-cleavage was determined as 0.716.

Regarding AACACUGCCCAUGCCGGUCCCAAGCCCGGAGAAAAGUGGAGGGGGCGG [A10C U31G], the self-cleavage is 0.737.

Consider AACACUGCCAAUGCCGGUCCCAACCCAGGAUAAAAGUGGAGGGGGCGG [G24C C27A], for which the self-cleavage was 0.121.

AACACUGCCAAUGCCGGUCCCAAGCCCGGAUAAAAGUGGAGGGGACUG [G45A G47U]: the self-cleavage was 0.701.

Take AACACUGCCAAUGCCGGUCCCAAGCGCGGAUAAAAGUGGCGGGGGCGG [C26G A40C]: the self-cleavage stood at 0.113.

On to AACACUGCGAAUGCCGGUCCCAAGCCCGGAUAAAAGUGGAGGGCGCGG [C9G G44C], for which the self-cleavage was 0.395.

Take AACAAUGCCAAUGCCAGUCCCAAGCCCGGAUAAAAGUGGAGGGGGCGG [C5A G16A]: the self-cleavage turned out to be 0.301.

In the case of AACACUGCCAAUGCCGGUCCCAAGACCGGAUAAAAGUGGAGCGGGCGG [C25A G42C], the self-cleavage is 0.115.

For AACACUGCCAAUGGCGGUCCCAAGCCCGGAUAAAAGGGGAGGGGGCGG [C14G U37G], the self-cleavage is 0.0706.

For AACACUGCGAAUGCCGGUCCCGAGCCCGGAUAAAAGUGGAGGGGGCGG [C9G A22G], the self-cleavage was found to be 0.0988.

In the case of AACACUGCCAAUGCCCGUCCCAAACCCGGAUAAAAGUGGAGGGGGCGG [G16C G24A], the self-cleavage stood at 0.0685.

Turning to AACACUGCCAAUGCCGGUCCCAAGCCCGGAUAAAAGAGGAGGGGGCUG [U37A G47U], the self-cleavage worked out at 0.702.

Take AACACUGCCAAUGCCGGUCCCAAGCCCGGAUAGAAGUGGAGGGGCCGG [A33G G45C]: the self-cleavage was 0.545.

Regarding AACACUGCCAAUGCCGGUCCCCAGCCCGGAUAAAAGUGGAUGGGGCGG [A22C G41U], the self-cleavage came to 0.366.

For AACACUGCCAAUGCCGGUCCCAAGCCCGGAUACAAGUUGAGGGGGCGG [A33C G38U], the self-cleavage was 0.72.

For the variant AACACUGCCAAUGCCGGUCGCAAGCCCGGAUAAAUGUGGAGGGGGCGG [C20G A35U], the self-cleavage amounted to 0.182.

Consider AACACUGCCAAUGCCGGUCCCAAACCCGGAUAAAAGUGGACGGGGCGG [G24A G41C], for which the self-cleavage came out at 0.0854.

Turning to AACACUGCCAAUGCCGGUCCCAAGCCCGGAUAAAAGUGGAGCGGGAGG [G42C C46A], the self-cleavage was 0.289.

With AACACUGCCAAUGCGGGUCCCAAGCCCGGCUAAAAGUGGAGGGGGCGG [C15G A30C], the self-cleavage worked out at 0.0706.

For AACACUGCCAAUGCCGGUCCCAAGCCCGGAUAAAAGUAGAGGGGUCGG [G38A G45U], the self-cleavage was found to be 0.737.

On to AACACUGCCAAUGCCGGGCCCAAGCCCGGAUAAAAGAGGAGGGGGCGG [U18G U37A], for which the self-cleavage stood at 0.063.

With AACACUGCCAAUGUCGGUCCCAAGCCCGGAUAAAAGUGGAGGGGGCGC [C14U G48C], the self-cleavage came to 1.26.

With AACACUGCCAAUGCCGGUCCCAUGCCCGGAUUAAAGUGGAGGGGGCGG [A23U A32U], the self-cleavage stood at 0.494.

Take AACACUGCCAAAGCCGGUGCCAAGCCCGGAUAAAAGUGGAGGGGGCGG [U12A C19G]: the self-cleavage came to 0.614.

Take AACACUGUCAAUGCGGGUCCCAAGCCCGGAUAAAAGUGGAGGGGGCGG [C8U C15G]: the self-cleavage is 0.0382.

On to AACACUGCCAAUACCGCUCCCAAGCCCGGAUAAAAGUGGAGGGGGCGG [G13A G17C], for which the self-cleavage stood at 0.0471.

AACGCUGCCAAUGCCGGUCCCAAGCCCGGAUAAAAGGGGAGGGGGCGG [A4G U37G]: the self-cleavage came out at 0.73.

Turning to AACACUGCCAAUACCGGUCCCAUGCCCGGAUAAAAGUGGAGGGGGCGG [G13A A23U], the self-cleavage turned out to be 0.0933.

AACACUGCCAAUGCCGGUCCCACGCCCGGAUAAAAAUGGAGGGGGCGG [A23C G36A]: the self-cleavage came to 0.09.

For the variant AACACUGCCAAUGCAGGUCCCAAGCCCGGAUAAAAGAGGAGGGGGCGG [C15A U37A], the self-cleavage stood at 0.129.

Regarding AACACUGCCAAUGCCGGUCGCAAGCCCGGAUAAAAUUGGAGGGGGCGG [C20G G36U], the self-cleavage came to 0.0382.

With AACCCUGCCAAUGCCGGUCCCAAGCCCGGAUAAAAGUGGGGGGGGCGG [A4C A40G], the self-cleavage came out at 0.0825.

Consider AACACUGCCAAGGCCGGUCCCAAGCCCGGAUAUAAGUGGAGGGGGCGG [U12G A33U], for which the self-cleavage is 0.868.

Turning to AACACUGCCAAUGCCGGUGCCAAGCCCGGAUAAAAUUGGAGGGGGCGG [C19G G36U], the self-cleavage was 0.099.

Consider ACCACUGCCAAUGCCGGUCCCAAGCCCGGAUAAAAGUGGGGGGGGCGG [A2C A40G], for which the self-cleavage came to 0.059.

In the case of AUCACUGCCAAUGCCGGUCCCAAGCGCGGAUAAAAGUGGAGGGGGCGG [A2U C26G], the self-cleavage is 0.128.

In the case of AACACACCCAAUGCCGGUCCCAAGCCCGGAUAAAAGUGGAGGGGGCGG [U6A G7C], the self-cleavage is 0.234.

In the case of AACACUGCCAAUGCCGGUACCAAGCCCGGAUAAAAGUCGAGGGGGCGG [C19A G38C], the self-cleavage came out at 0.0851.

Consider UACACUGCCAAUGCCCGUCCCAAGCCCGGAUAAAAGUGGAGGGGGCGG [A1U G16C], for which the self-cleavage worked out at 0.0739.

In the case of CACACUGCCAAUGCCGGUCCCAAGCCCGGAUAAAAGUGGAGGGGGCGA [A1C G48A], the self-cleavage stood at 0.164.

On to AACACCGCCAAUGCCGGUCCCAAGCCCGAAUAAAAGUGGAGGGGGCGG [U6C G29A], for which the self-cleavage amounted to 0.34.

As for AACACUGCCAAUGCAGGUCCCAACCCCGGAUAAAAGUGGAGGGGGCGG [C15A G24C], the self-cleavage worked out at 0.0841.
